# In patent US12679878B2, “CRF2 receptor agonists and their use in therapy” (SANOFI, priority 2020, dated 2026):
# Starred links: 1 amine or outer side, 2 acyl side, 3 side chain; linkers in the order of their positions; H or OH if unused. Non-standard residues stand in square brackets, D forms with d. Groups on a side chain read outwards from the residue. No end group written: not given here. *: point of attachment. C18 diacid = O=C(O)CCCCCCCCCCCCCCCCC(=O)*; γGlu = O=C(O)[C@H](CCC(=O)[*:2])N[*:1]; AEEA = NCCOCCOCC(=O)O; Aib = CC(C)(N)C(=O)O
# B1: SEQ ID NO: 39 (peptide)
# peptide: IVLSLDVPIKLK([AEEA-AEEA-γGlu-C18 diacid])QILLEQERQRKERQQAETNAQILAQV-NH2
# modifications: N-terminus assumed
# SMILES: CC[C@H](C)[C@H](N)C(=O)N[C@H](C(=O)N[C@@H](CC(C)C)C(=O)N[C@@H](CO)C(=O)N[C@@H](CC(C)C)C(=O)N[C@@H](CC(=O)O)C(=O)N[C@H](C(=O)N1CCC[C@H]1C(=O)N[C@H](C(=O)N[C@@H](CCCCN)C(=O)N[C@@H](CC(C)C)C(=O)N[C@@H](CCCCNC(=O)COCCOCCNC(=O)COCCOCCNC(=O)CC[C@H](NC(=O)CCCCCCCCCCCCCCCCC(=O)O)C(=O)O)C(=O)N[C@@H](CCC(N)=O)C(=O)N[C@H](C(=O)N[C@@H](CC(C)C)C(=O)N[C@@H](CC(C)C)C(=O)N[C@@H](CCC(=O)O)C(=O)N[C@@H](CCC(N)=O)C(=O)N[C@@H](CCC(=O)O)C(=O)N[C@@H](CCCNC(=N)N)C(=O)N[C@@H](CCC(N)=O)C(=O)N[C@@H](CCCNC(=N)N)C(=O)N[C@@H](CCCCN)C(=O)N[C@@H](CCC(=O)O)C(=O)N[C@@H](CCCNC(=N)N)C(=O)N[C@@H](CCC(N)=O)C(=O)N[C@@H](CCC(N)=O)C(=O)N[C@@H](C)C(=O)N[C@@H](CCC(=O)O)C(=O)N[C@H](C(=O)N[C@@H](CC(N)=O)C(=O)N[C@@H](C)C(=O)N[C@@H](CCC(N)=O)C(=O)N[C@H](C(=O)N[C@@H](CC(C)C)C(=O)N[C@@H](C)C(=O)N[C@@H](CCC(N)=O)C(=O)N[C@H](C(N)=O)C(C)C)[C@@H](C)CC)[C@@H](C)O)[C@@H](C)CC)[C@@H](C)CC)C(C)C)C(C)C
# B2: SEQ ID NO: 41 (peptide)
# peptide: IVLSLDVPIKLK([AEEA-AEEA-γGlu-C18 diacid])QILLEQERQRKERQQAEKNVRILERV-NH2
# modifications: N-terminus assumed
# SMILES: CC[C@H](C)[C@H](N)C(=O)N[C@H](C(=O)N[C@@H](CC(C)C)C(=O)N[C@@H](CO)C(=O)N[C@@H](CC(C)C)C(=O)N[C@@H](CC(=O)O)C(=O)N[C@H](C(=O)N1CCC[C@H]1C(=O)N[C@H](C(=O)N[C@@H](CCCCN)C(=O)N[C@@H](CC(C)C)C(=O)N[C@@H](CCCCNC(=O)COCCOCCNC(=O)COCCOCCNC(=O)CC[C@H](NC(=O)CCCCCCCCCCCCCCCCC(=O)O)C(=O)O)C(=O)N[C@@H](CCC(N)=O)C(=O)N[C@H](C(=O)N[C@@H](CC(C)C)C(=O)N[C@@H](CC(C)C)C(=O)N[C@@H](CCC(=O)O)C(=O)N[C@@H](CCC(N)=O)C(=O)N[C@@H](CCC(=O)O)C(=O)N[C@@H](CCCNC(=N)N)C(=O)N[C@@H](CCC(N)=O)C(=O)N[C@@H](CCCNC(=N)N)C(=O)N[C@@H](CCCCN)C(=O)N[C@@H](CCC(=O)O)C(=O)N[C@@H](CCCNC(=N)N)C(=O)N[C@@H](CCC(N)=O)C(=O)N[C@@H](CCC(N)=O)C(=O)N[C@@H](C)C(=O)N[C@@H](CCC(=O)O)C(=O)N[C@@H](CCCCN)C(=O)N[C@@H](CC(N)=O)C(=O)N[C@H](C(=O)N[C@@H](CCCNC(=N)N)C(=O)N[C@H](C(=O)N[C@@H](CC(C)C)C(=O)N[C@@H](CCC(=O)O)C(=O)N[C@@H](CCCNC(=N)N)C(=O)N[C@H](C(N)=O)C(C)C)[C@@H](C)CC)C(C)C)[C@@H](C)CC)[C@@H](C)CC)C(C)C)C(C)C
# B3: SEQ ID NO: 38 (peptide)
# peptide: IVLSLDVPTKLK([AEEA-AEEA-γGlu-C18 diacid])QKLLKQERQR[Aib]ERQQAETNKRILERV-NH2
# modifications: N-terminus assumed
# SMILES: CC[C@H](C)[C@H](N)C(=O)N[C@H](C(=O)N[C@@H](CC(C)C)C(=O)N[C@@H](CO)C(=O)N[C@@H](CC(C)C)C(=O)N[C@@H](CC(=O)O)C(=O)N[C@H](C(=O)N1CCC[C@H]1C(=O)N[C@H](C(=O)N[C@@H](CCCCN)C(=O)N[C@@H](CC(C)C)C(=O)N[C@@H](CCCCNC(=O)COCCOCCNC(=O)COCCOCCNC(=O)CC[C@H](NC(=O)CCCCCCCCCCCCCCCCC(=O)O)C(=O)O)C(=O)N[C@@H](CCC(N)=O)C(=O)N[C@@H](CCCCN)C(=O)N[C@@H](CC(C)C)C(=O)N[C@@H](CC(C)C)C(=O)N[C@@H](CCCCN)C(=O)N[C@@H](CCC(N)=O)C(=O)N[C@@H](CCC(=O)O)C(=O)N[C@@H](CCCNC(=N)N)C(=O)N[C@@H](CCC(N)=O)C(=O)N[C@@H](CCCNC(=N)N)C(=O)NC(C)(C)C(=O)N[C@@H](CCC(=O)O)C(=O)N[C@@H](CCCNC(=N)N)C(=O)N[C@@H](CCC(N)=O)C(=O)N[C@@H](CCC(N)=O)C(=O)N[C@@H](C)C(=O)N[C@@H](CCC(=O)O)C(=O)N[C@H](C(=O)N[C@@H](CC(N)=O)C(=O)N[C@@H](CCCCN)C(=O)N[C@@H](CCCNC(=N)N)C(=O)N[C@H](C(=O)N[C@@H](CC(C)C)C(=O)N[C@@H](CCC(=O)O)C(=O)N[C@@H](CCCNC(=N)N)C(=O)N[C@H](C(N)=O)C(C)C)[C@@H](C)CC)[C@@H](C)O)[C@@H](C)O)C(C)C)C(C)C
# B4: SEQ ID NO: 37 (peptide)
# peptide: IVLSLDVPTKLK([AEEA-AEEA-γGlu-C18 diacid])QKLLKQERQRKERQQAETNKRILERV-NH2
# modifications: N-terminus assumed
# SMILES: CC[C@H](C)[C@H](N)C(=O)N[C@H](C(=O)N[C@@H](CC(C)C)C(=O)N[C@@H](CO)C(=O)N[C@@H](CC(C)C)C(=O)N[C@@H](CC(=O)O)C(=O)N[C@H](C(=O)N1CCC[C@H]1C(=O)N[C@H](C(=O)N[C@@H](CCCCN)C(=O)N[C@@H](CC(C)C)C(=O)N[C@@H](CCCCNC(=O)COCCOCCNC(=O)COCCOCCNC(=O)CC[C@H](NC(=O)CCCCCCCCCCCCCCCCC(=O)O)C(=O)O)C(=O)N[C@@H](CCC(N)=O)C(=O)N[C@@H](CCCCN)C(=O)N[C@@H](CC(C)C)C(=O)N[C@@H](CC(C)C)C(=O)N[C@@H](CCCCN)C(=O)N[C@@H](CCC(N)=O)C(=O)N[C@@H](CCC(=O)O)C(=O)N[C@@H](CCCNC(=N)N)C(=O)N[C@@H](CCC(N)=O)C(=O)N[C@@H](CCCNC(=N)N)C(=O)N[C@@H](CCCCN)C(=O)N[C@@H](CCC(=O)O)C(=O)N[C@@H](CCCNC(=N)N)C(=O)N[C@@H](CCC(N)=O)C(=O)N[C@@H](CCC(N)=O)C(=O)N[C@@H](C)C(=O)N[C@@H](CCC(=O)O)C(=O)N[C@H](C(=O)N[C@@H](CC(N)=O)C(=O)N[C@@H](CCCCN)C(=O)N[C@@H](CCCNC(=N)N)C(=O)N[C@H](C(=O)N[C@@H](CC(C)C)C(=O)N[C@@H](CCC(=O)O)C(=O)N[C@@H](CCCNC(=N)N)C(=O)N[C@H](C(N)=O)C(C)C)[C@@H](C)CC)[C@@H](C)O)[C@@H](C)O)C(C)C)C(C)C
# B5: SEQ ID NO: 40 (peptide)
# peptide: IVLSLDVPIKLK([AEEA-AEEA-γGlu-C18 diacid])QILLEQERQRKERQQAETNVQILAQV-NH2
# modifications: N-terminus assumed
# SMILES: CC[C@H](C)[C@H](N)C(=O)N[C@H](C(=O)N[C@@H](CC(C)C)C(=O)N[C@@H](CO)C(=O)N[C@@H](CC(C)C)C(=O)N[C@@H](CC(=O)O)C(=O)N[C@H](C(=O)N1CCC[C@H]1C(=O)N[C@H](C(=O)N[C@@H](CCCCN)C(=O)N[C@@H](CC(C)C)C(=O)N[C@@H](CCCCNC(=O)COCCOCCNC(=O)COCCOCCNC(=O)CC[C@H](NC(=O)CCCCCCCCCCCCCCCCC(=O)O)C(=O)O)C(=O)N[C@@H](CCC(N)=O)C(=O)N[C@H](C(=O)N[C@@H](CC(C)C)C(=O)N[C@@H](CC(C)C)C(=O)N[C@@H](CCC(=O)O)C(=O)N[C@@H](CCC(N)=O)C(=O)N[C@@H](CCC(=O)O)C(=O)N[C@@H](CCCNC(=N)N)C(=O)N[C@@H](CCC(N)=O)C(=O)N[C@@H](CCCNC(=N)N)C(=O)N[C@@H](CCCCN)C(=O)N[C@@H](CCC(=O)O)C(=O)N[C@@H](CCCNC(=N)N)C(=O)N[C@@H](CCC(N)=O)C(=O)N[C@@H](CCC(N)=O)C(=O)N[C@@H](C)C(=O)N[C@@H](CCC(=O)O)C(=O)N[C@H](C(=O)N[C@@H](CC(N)=O)C(=O)N[C@H](C(=O)N[C@@H](CCC(N)=O)C(=O)N[C@H](C(=O)N[C@@H](CC(C)C)C(=O)N[C@@H](C)C(=O)N[C@@H](CCC(N)=O)C(=O)N[C@H](C(N)=O)C(C)C)[C@@H](C)CC)C(C)C)[C@@H](C)O)[C@@H](C)CC)[C@@H](C)CC)C(C)C)C(C)C
# B6: SEQ ID NO: 36 (peptide)
# peptide: IVLSLD[dV]PTKLK([AEEA-AEEA-γGlu-C18 diacid])QKLLKQERQRK[Aib]REQAEKNKRILERV-NH2
# modifications: N-terminus assumed
# SMILES: CC[C@H](C)[C@H](N)C(=O)N[C@H](C(=O)N[C@@H](CC(C)C)C(=O)N[C@@H](CO)C(=O)N[C@@H](CC(C)C)C(=O)N[C@@H](CC(=O)O)C(=O)N[C@@H](C(=O)N1CCC[C@H]1C(=O)N[C@H](C(=O)N[C@@H](CCCCN)C(=O)N[C@@H](CC(C)C)C(=O)N[C@@H](CCCCNC(=O)COCCOCCNC(=O)COCCOCCNC(=O)CC[C@H](NC(=O)CCCCCCCCCCCCCCCCC(=O)O)C(=O)O)C(=O)N[C@@H](CCC(N)=O)C(=O)N[C@@H](CCCCN)C(=O)N[C@@H](CC(C)C)C(=O)N[C@@H](CC(C)C)C(=O)N[C@@H](CCCCN)C(=O)N[C@@H](CCC(N)=O)C(=O)N[C@@H](CCC(=O)O)C(=O)N[C@@H](CCCNC(=N)N)C(=O)N[C@@H](CCC(N)=O)C(=O)N[C@@H](CCCNC(=N)N)C(=O)N[C@@H](CCCCN)C(=O)NC(C)(C)C(=O)N[C@@H](CCCNC(=N)N)C(=O)N[C@@H](CCC(=O)O)C(=O)N[C@@H](CCC(N)=O)C(=O)N[C@@H](C)C(=O)N[C@@H](CCC(=O)O)C(=O)N[C@@H](CCCCN)C(=O)N[C@@H](CC(N)=O)C(=O)N[C@@H](CCCCN)C(=O)N[C@@H](CCCNC(=N)N)C(=O)N[C@H](C(=O)N[C@@H](CC(C)C)C(=O)N[C@@H](CCC(=O)O)C(=O)N[C@@H](CCCNC(=N)N)C(=O)N[C@H](C(N)=O)C(C)C)[C@@H](C)CC)[C@@H](C)O)C(C)C)C(C)C
# Target: human corticotropin-releasing factor 2α (CRF2 α receptor) (human), Q13324
# Assay: cell-based or functional assay
# Chain of human corticotropin-releasing factor 2α (CRF2 α receptor) (human), Q13324 (Q13324 20-411): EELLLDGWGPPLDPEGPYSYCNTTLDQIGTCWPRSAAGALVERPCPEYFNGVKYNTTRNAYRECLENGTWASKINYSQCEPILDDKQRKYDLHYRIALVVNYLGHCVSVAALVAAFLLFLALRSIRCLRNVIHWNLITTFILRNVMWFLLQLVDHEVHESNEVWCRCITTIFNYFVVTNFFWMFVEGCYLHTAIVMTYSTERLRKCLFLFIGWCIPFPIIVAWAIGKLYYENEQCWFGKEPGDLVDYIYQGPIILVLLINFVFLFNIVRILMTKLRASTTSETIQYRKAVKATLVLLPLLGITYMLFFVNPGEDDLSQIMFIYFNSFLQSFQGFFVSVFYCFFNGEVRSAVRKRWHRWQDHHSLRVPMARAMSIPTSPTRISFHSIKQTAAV
row,"EC50 [nM], 0% HSA [nM]",Binder
1,0.65,B1
2,15.6,B2
3,20.9,B3
4,1.6,B4
5,15.4,B5
6,1.45,B6
